From EP4039268A1
pKd, pKi: −log10 of the molar value.

Columns and labels:
[1] = molecular target: monomeric SARS-CoV-2 receptor binding domain (RBD-H6) (SARS-CoV-2) (UniProt P0DTC2); experiment: ELISA screen
[2] = molecular target: human recombinant soluble ACE2 (human) (UniProt Q9BYF1); experiment: ELISA screen
[3] = molecular target: full-length trimeric SARS-CoV-2 Spike protein (Spike-H6) (SARS-CoV-2); experiment: ELISA screen
[4] = molecular target: full-length trimeric SARS-CoV-2 Spike protein (Spike-H6) (SARS-CoV-2); experiment: SPR, Spike immobilized, bivalent analyte model, first binding step
[5] = molecular target: full-length trimeric SARS-CoV-2 Spike protein (Spike-H6) (SARS-CoV-2); experiment: high-speed AFM, from volumes
[6] = molecular target: full-length trimeric SARS-CoV-2 Spike protein (Spike-H6) (SARS-CoV-2); experiment: AFM single molecule force spectroscopy, Evans model
[7] = molecular target: full-length trimeric SARS-CoV-2 Spike protein (Spike-H6) (SARS-CoV-2); experiment: inhibition of Spike binding to Vero E6 cells, AFM

Chain of human recombinant soluble ACE2 (human) (Q9BYF1 18-740 limits assumed): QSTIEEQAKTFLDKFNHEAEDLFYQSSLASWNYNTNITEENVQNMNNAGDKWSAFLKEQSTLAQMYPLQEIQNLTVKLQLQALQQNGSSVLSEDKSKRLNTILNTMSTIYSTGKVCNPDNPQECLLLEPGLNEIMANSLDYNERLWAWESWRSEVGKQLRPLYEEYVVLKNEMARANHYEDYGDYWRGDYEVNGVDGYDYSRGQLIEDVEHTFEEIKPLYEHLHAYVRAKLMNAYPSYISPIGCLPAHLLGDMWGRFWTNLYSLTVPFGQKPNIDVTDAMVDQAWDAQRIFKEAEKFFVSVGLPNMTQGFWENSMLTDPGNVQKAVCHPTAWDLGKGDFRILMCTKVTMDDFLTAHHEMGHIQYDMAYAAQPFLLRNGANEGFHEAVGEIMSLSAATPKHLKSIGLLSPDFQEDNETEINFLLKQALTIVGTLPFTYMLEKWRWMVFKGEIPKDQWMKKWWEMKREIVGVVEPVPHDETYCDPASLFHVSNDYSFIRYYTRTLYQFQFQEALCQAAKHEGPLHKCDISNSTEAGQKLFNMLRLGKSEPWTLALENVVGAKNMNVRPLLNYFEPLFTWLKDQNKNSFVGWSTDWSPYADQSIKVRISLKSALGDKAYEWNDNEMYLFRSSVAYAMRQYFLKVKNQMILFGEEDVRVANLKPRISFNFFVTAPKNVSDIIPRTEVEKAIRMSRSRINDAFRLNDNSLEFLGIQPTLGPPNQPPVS
Chain of human CLEC4G-hIgG1 Fc-fusion protein (Fc fusion) (Q6UXB4 53-293, form in doubt): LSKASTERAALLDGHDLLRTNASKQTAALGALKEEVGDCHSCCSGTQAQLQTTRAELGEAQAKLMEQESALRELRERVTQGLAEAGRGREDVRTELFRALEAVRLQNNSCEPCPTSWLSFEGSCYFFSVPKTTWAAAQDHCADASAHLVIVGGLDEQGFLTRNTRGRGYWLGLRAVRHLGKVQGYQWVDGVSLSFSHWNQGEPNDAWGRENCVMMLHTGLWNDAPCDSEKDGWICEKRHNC
Chain of Clec2i CRD-mouse IgG2a-Fc fusion protein (Q9WVF9 other isoform, or with tags, fused parts or gaps limits assumed): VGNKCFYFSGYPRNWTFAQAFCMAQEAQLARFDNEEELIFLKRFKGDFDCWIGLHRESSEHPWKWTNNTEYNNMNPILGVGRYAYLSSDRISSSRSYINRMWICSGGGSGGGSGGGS
Chain of Ly75_1 CRD-mouse IgG2a-Fc fusion protein (Q60767 other isoform, or with tags, fused parts or gaps limits assumed): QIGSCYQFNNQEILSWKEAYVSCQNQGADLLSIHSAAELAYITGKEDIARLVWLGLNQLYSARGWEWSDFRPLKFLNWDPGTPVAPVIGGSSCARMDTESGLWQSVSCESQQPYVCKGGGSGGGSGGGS
Chain of Ncan CRD-mouse IgG2a-Fc fusion protein (P55066 other isoform, or with tags, fused parts or gaps limits assumed): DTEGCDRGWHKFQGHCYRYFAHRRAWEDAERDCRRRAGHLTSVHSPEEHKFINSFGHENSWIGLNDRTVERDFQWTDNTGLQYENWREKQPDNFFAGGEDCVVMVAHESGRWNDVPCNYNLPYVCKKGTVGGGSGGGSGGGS
Chain of Ly75_5 CRD-mouse IgG2a-Fc fusion protein (Q60767 other isoform, or with tags, fused parts or gaps limits assumed): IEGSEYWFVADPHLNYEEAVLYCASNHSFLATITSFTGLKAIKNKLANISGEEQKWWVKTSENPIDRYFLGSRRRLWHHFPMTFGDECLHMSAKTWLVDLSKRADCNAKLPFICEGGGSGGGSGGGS
Chain of Bcan CRD-mouse IgG2a-Fc fusion protein (Q61361 other isoform, or with tags, fused parts or gaps limits assumed): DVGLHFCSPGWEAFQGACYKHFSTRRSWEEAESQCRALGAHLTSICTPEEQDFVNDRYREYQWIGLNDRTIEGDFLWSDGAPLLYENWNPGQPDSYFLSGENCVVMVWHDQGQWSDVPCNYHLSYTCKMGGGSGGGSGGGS
Chain of Lgals6_2 CRD-mouse IgG2a-Fc fusion protein (O54891 other isoform, or with tags, fused parts or gaps limits assumed): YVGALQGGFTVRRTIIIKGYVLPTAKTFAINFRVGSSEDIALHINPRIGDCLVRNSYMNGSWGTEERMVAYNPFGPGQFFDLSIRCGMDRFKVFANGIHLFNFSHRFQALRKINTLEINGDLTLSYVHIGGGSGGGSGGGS
Chain of Clec4g CRD-mouse IgG2a-Fc fusion protein (Q8BNX1 other isoform, or with tags, fused parts or gaps limits assumed): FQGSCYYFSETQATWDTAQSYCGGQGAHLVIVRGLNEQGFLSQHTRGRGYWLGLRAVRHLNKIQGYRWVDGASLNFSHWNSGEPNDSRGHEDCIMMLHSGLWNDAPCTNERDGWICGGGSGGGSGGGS
Chain of Olr1 CRD-mouse IgG2a-Fc fusion protein (Q9EQ09 other isoform, or with tags, fused parts or gaps limits assumed): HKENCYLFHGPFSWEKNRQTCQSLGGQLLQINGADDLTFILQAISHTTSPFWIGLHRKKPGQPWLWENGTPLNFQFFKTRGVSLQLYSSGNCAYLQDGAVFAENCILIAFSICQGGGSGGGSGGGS
Chain of Ly75_2 CRD-mouse IgG2a-Fc fusion protein (Q60767 other isoform, or with tags, fused parts or gaps limits assumed): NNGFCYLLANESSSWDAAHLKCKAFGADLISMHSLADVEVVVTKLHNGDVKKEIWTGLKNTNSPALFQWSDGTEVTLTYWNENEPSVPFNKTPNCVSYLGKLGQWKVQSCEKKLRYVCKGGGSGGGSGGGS
Chain of Clec2g CRD-mouse IgG2a-Fc fusion protein (Q9D676 other isoform, or with tags, fused parts or gaps limits assumed): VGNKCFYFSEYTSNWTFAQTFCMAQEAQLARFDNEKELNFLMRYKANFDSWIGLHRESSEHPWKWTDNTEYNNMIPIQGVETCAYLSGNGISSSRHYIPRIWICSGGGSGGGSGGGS
Chain of Lgals4_1 CRD-mouse IgG2a-Fc fusion protein (Q8K419 other isoform, or with tags, fused parts or gaps limits assumed): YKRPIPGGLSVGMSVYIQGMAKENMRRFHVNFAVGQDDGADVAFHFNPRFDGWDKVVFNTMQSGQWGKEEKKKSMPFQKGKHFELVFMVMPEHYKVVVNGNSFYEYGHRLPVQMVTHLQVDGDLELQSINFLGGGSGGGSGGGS
Chain of Clec2h CRD-mouse IgG2a-Fc fusion protein (Q8C1T8 other isoform, or with tags, fused parts or gaps limits assumed): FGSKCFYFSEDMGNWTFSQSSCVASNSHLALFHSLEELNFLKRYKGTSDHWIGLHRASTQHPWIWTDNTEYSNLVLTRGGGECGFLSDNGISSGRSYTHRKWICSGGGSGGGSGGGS
Chain of Asgr1 CRD-mouse IgG2a-Fc fusion protein (P34927 other isoform, or with tags, fused parts or gaps limits assumed): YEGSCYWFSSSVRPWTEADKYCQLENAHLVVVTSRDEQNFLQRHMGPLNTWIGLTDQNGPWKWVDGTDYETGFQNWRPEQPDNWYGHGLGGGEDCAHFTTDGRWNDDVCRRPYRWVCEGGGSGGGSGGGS

“Asgr1 CRD-mouse IgG2a-Fc fusion protein (from UniProt P34927 160-277)” gave a Mean normalized OD [1] of 0.697 OD.
With “Bcan CRD-mouse IgG2a-Fc fusion protein (from UniProt Q61361 658-786)” the Mean normalized OD [1] was 0.101 OD.
In the case of “Cd33 CRD-mouse IgG2a-Fc fusion protein (from UniProt Q63994 17-120)”, the Mean normalized OD [2] was 0.216 OD, the Mean normalized OD [1] was 0.009 OD and the Mean normalized OD [3] was 0.023 OD.
“Cd93 CRD-mouse IgG2a-Fc fusion protein (from UniProt O89103 31-173)” showed a Mean normalized OD [2] of -0.163 OD, a Mean normalized OD [1] of -0.005 OD and a Mean normalized OD [3] of 0 OD.
Substance “Cd209f CRD-mouse IgG2a-Fc fusion protein” has a Mean normalized OD [2] of 0.182 OD, a Mean normalized OD [1] of 0.015 OD and a Mean normalized OD [3] of 0.018 OD.
“Clec2f CRD-mouse IgG2a-Fc fusion protein” was tested, and the Mean normalized OD [2] was -0.261 OD, the Mean normalized OD [1] was 0.045 OD and the Mean normalized OD [3] was -0.02 OD.
In the case of “Clec2g CRD-mouse IgG2a-Fc fusion protein (from UniProt Q9D676 150-254)”, the Mean normalized OD [1] was 0.421 OD.
“Clec2h CRD-mouse IgG2a-Fc fusion protein (from UniProt Q8C1T8 97-201)” gave a Mean normalized OD [1] of 0.237 OD.
“Clec2i CRD-mouse IgG2a-Fc fusion protein (from UniProt Q9WVF9 99-203)” was tested, and the Mean normalized OD [1] was 0.178 OD.
For “Clec2j CRD-mouse IgG2a-Fc fusion protein”, the Mean normalized OD [2] was 0.059 OD, the Mean normalized OD [1] was 0.005 OD and the Mean normalized OD [3] was 0.006 OD.
“Clec4a1 CRD-mouse IgG2a-Fc fusion protein” gave a Mean normalized OD [2] of -0.004 OD, a Mean normalized OD [1] of 0.024 OD and a Mean normalized OD [3] of 0.014 OD.
“Clec4a3 CRD-mouse IgG2a-Fc fusion protein” was tested, and the Mean normalized OD [2] was 0.001 OD, the Mean normalized OD [1] was 0.002 OD and the Mean normalized OD [3] was 0.002 OD.
For “Clec4a4 CRD-mouse IgG2a-Fc fusion protein”, the Mean normalized OD [2] was -0.009 OD, the Mean normalized OD [1] was 0.007 OD and the Mean normalized OD [3] was 0.004 OD.
“Clec4a CRD-mouse IgG2a-Fc fusion protein (from UniProt Q9QZ15 126-233)” was tested, and the Mean normalized OD [2] was 0.062 OD, the Mean normalized OD [1] was 0.036 OD and the Mean normalized OD [3] was 0.014 OD.
“Clec4b1 CRD-mouse IgG2a-Fc fusion protein” showed a Mean normalized OD [2] of 0.001 OD, a Mean normalized OD [1] of 0.023 OD and a Mean normalized OD [3] of 0.013 OD.
“Clec4b2 CRD-mouse IgG2a-Fc fusion protein” gave a Mean normalized OD [2] of 0.008 OD, a Mean normalized OD [1] of 0.003 OD and a Mean normalized OD [3] of -0.013 OD.
“Clec4f CRD-mouse IgG2a-Fc fusion protein (from UniProt P70194 438-538)” showed a Mean normalized OD [2] of 0.194 OD, a Mean normalized OD [1] of 0.362 OD and a Mean normalized OD [3] of -0.146 OD.
Work on “Clec4g CRD-mouse IgG2a-Fc fusion protein (from UniProt Q8BNX1 172-287)” yielded a Mean normalized OD [1] of 0.451 OD.
Work on “Colec12 CRD-mouse IgG2a-Fc fusion protein (from UniProt Q8K4Q8 614-731)” yielded a Mean normalized OD [2] of 0.317 OD.
“Fcer2a CRD-mouse IgG2a-Fc fusion protein (from UniProt P20693 185-298)” gave a Mean normalized OD [2] of -0.004 OD, a Mean normalized OD [1] of 0 OD and a Mean normalized OD [3] of 0.007 OD.
Gm156 CRD-mouse IgG2a-Fc fusion protein showed a Mean normalized OD [2] of 0.009 OD, a Mean normalized OD [1] of 0.048 OD and a Mean normalized OD [3] of 0.074 OD.
IgG2a gave a Mean normalized OD [2] of -0.003 OD, a Mean normalized OD [1] of 0 OD and a Mean normalized OD [3] of 0.001 OD.
With “Klrb1b_1 CRD-mouse IgG2a-Fc fusion protein” the Mean normalized OD [2] was 0.003 OD, the Mean normalized OD [1] was 0.002 OD and the Mean normalized OD [3] was 0.001 OD.
Substance Klrc1 CRD-mouse IgG2a-Fc fusion protein has a Mean normalized OD [2] of 0.039 OD, a Mean normalized OD [1] of 0.01 OD and a Mean normalized OD [3] of 0.006 OD.
With Klrc2 CRD-mouse IgG2a-Fc fusion protein the Mean normalized OD [2] was 0.104 OD, the Mean normalized OD [1] was 0.035 OD and the Mean normalized OD [3] was 0.025 OD.
In the case of Klrc3 CRD-mouse IgG2a-Fc fusion protein, the Mean normalized OD [2] was 0.086 OD, the Mean normalized OD [1] was 0.061 OD and the Mean normalized OD [3] was -0.007 OD.
Substance “Lgals4_1 CRD-mouse IgG2a-Fc fusion protein (from UniProt Q8K419 19-150)” has a Mean normalized OD [1] of 0.143 OD.
“Lgals6_2 CRD-mouse IgG2a-Fc fusion protein (from UniProt O54891 173-301)” was tested, and the Mean normalized OD [2] was 0.528 OD and the Mean normalized OD [1] was 0.073 OD.
With “Lgals9_2 CRD-mouse IgG2a-Fc fusion protein (from UniProt O08573 225-353)” the Mean normalized OD [2] was 0.367 OD.
With “Ly75_1 CRD-mouse IgG2a-Fc fusion protein (from UniProt Q60767 225-341)” the Mean normalized OD [1] was 0.29 OD.
“Ly75_2 CRD-mouse IgG2a-Fc fusion protein (from UniProt Q60767 368-486)” gave a Mean normalized OD [1] of -0.206 OD.
Substance “Ly75_5 CRD-mouse IgG2a-Fc fusion protein (from UniProt Q60767 818-932)” has a Mean normalized OD [1] of 0.14 OD.
Substance “Mag CRD-mouse IgG2a-Fc fusion protein (from UniProt P20917 22-120)” has a Mean normalized OD [2] of 0.032 OD, a Mean normalized OD [1] of 0.004 OD and a Mean normalized OD [3] of 0.008 OD.
“Mbl1 CRD-mouse IgG2a-Fc fusion protein (from UniProt P39039 144-239)” showed a Mean normalized OD [2] of 0.098 OD, a Mean normalized OD [1] of 0.019 OD and a Mean normalized OD [3] of 0.043 OD.
Mgl2 CRD-mouse IgG2a-Fc fusion protein showed a Mean normalized OD [2] of 0.145 OD, a Mean normalized OD [1] of 1.31 OD and a Mean normalized OD [3] of 0.598 OD.
“Ncan CRD-mouse IgG2a-Fc fusion protein (from UniProt P55066 1036-1165)” showed a Mean normalized OD [1] of 0.279 OD.
“Olr1 CRD-mouse IgG2a-Fc fusion protein (from UniProt Q9EQ09 242-355)” gave a Mean normalized OD [1] of 0.379 OD.
With Prg2 CRD-mouse IgG2a-Fc fusion protein the Mean normalized OD [2] was -0.014 OD, the Mean normalized OD [1] was 0.001 OD and the Mean normalized OD [3] was 0.009 OD.
Prg3 CRD-mouse IgG2a-Fc fusion protein gave a Mean normalized OD [2] of -0.298 OD, a Mean normalized OD [1] of -0.057 OD and a Mean normalized OD [3] of -0.271 OD.
Reg3d CRD-mouse IgG2a-Fc fusion protein gave a Mean normalized OD [2] of 0.152 OD, a Mean normalized OD [1] of 0.019 OD and a Mean normalized OD [3] of 0.019 OD.
“Siglec5 CRD-mouse IgG2a-Fc fusion protein” showed a Mean normalized OD [2] of 0.146 OD, a Mean normalized OD [1] of 0.019 OD and a Mean normalized OD [3] of 0.041 OD.
“Siglec10 CRD-mouse IgG2a-Fc fusion protein (from UniProt Q80ZE3 26-138)” showed a Mean normalized OD [2] of 0.299 OD.
“Siglech CRD-mouse IgG2a-Fc fusion protein” showed a Mean normalized OD [2] of -0.003 OD, a Mean normalized OD [1] of 0 OD and a Mean normalized OD [3] of 0.003 OD.
“Vcan CRD-mouse IgG2a-Fc fusion protein (from UniProt Q62059 3138-3252)” was tested, and the Mean normalized OD [2] was 0.332 OD.
“human CD209-hIgG1 Fc-fusion protein (from UniProt Q9NNX6 62-404) (Fc fusion)” showed a pKd [4] of 5.62, a koff [4] of 0.0316 s⁻¹ and a kon [4] of 13200 M⁻¹ s⁻¹. It also gave a molecules bound per trimeric Spike (average) (molecules per trimeric Spike) [5] of 3.6, a koff [6] of 0.008 s⁻¹ and a xβ (length of dissociation path) [6] of 0.73 nm.
With “human CLEC4G-hIgG1 Fc-fusion protein (Fc fusion)” the pKi [7] was 7.15 to 7.46, the pKd [4] was 6.59 and the koff [4] was 0.0201 s⁻¹. The kon [4] was 77700 M⁻¹ s⁻¹, the molecules bound per trimeric Spike (average) (molecules per trimeric Spike) [5] was 3.5 and the koff [6] was 0.007 s⁻¹. It also gave a xβ (length of dissociation path) [6] of 0.64 nm.
